Measurements taken from patent US20240344138A1, “TARGETED THERAPIES IN CANCER” (Feng Biosciences, Inc, priority 2021, published 2024).

How the values were obtained:
Format in all cases: in vivo, human
[1] = test system: locally advanced or metastatic gastric cancer; assay: First-line clinical trial of chemotherapy, immune checkpoint inhibitor and bavituximab, outcome by TME phenotype
Protocol: (§1) A clinical trial is run to determine whether locally advanced or metastatic gastric cancer tumor microenvironment phenotypes correlate to clinical responses when patients are treated with chemotherapy, an immune checkpoint inhibitor, and Bavituximab in the first-line setting. The analysis includes samples from 120 patients across 2 treatment arms (60 patients in each arm). Patients are randomized to receive either (i) chemotherapy and an immune checkpoint inhibitor, or (ii) chemotherapy, an immune checkpoint inhibitor, and bavituximab. RNA gene signatures are analyzed from tumor samples acquired before any treatments and TME phenotypes are determined. Patients are followed for clinical response, progression-free survival, and overall survival.
Gastric cancer patients are randomized to receiving a regimen of chemotherapy (i.e. capecitabine, 5-FU, cisplatin etc.) plus an immune checkpoint inhibitor (anti-PD-(L)1—i.e., an inhibitor to PD-1 or PD-L1) therapy, or a regimen of chemotherapy/immune checkpoint inhibitor/Bavituximab. The combination of chemotherapy/immune checkpoint inhibitor/Bavituximab increases overall response rate (ORR), 6 month progression-free survival (PFS) and overall survival (OS) patients with advanced gastric cancer compared to the regimen of chemotherapy/immune checkpoint inhibitor alone as shown in TABLE 23. […] One hundred and twenty (120) patients are enrolled, 60 in each of the treatment groups with equal representation across the 4 stromal phenotypes (15 in each phenotype per treatment group). The correlation between each TME phenotype is tested against clinical outcome data. In immune active (IA) and immune suppressed (IS) patients the use of the regimen of chemotherapy/immune checkpoint inhibitor/Bavituximab confers benefit in comparison to patients classified to angiogenic (A) and immune desert (ID) TME phenotype classes as shown in the TABLE 24.

[2] = test system: recurrent/metastatic squamous carcinoma of head and neck (HNSCC); assay: Single arm phase 2 trial of bavituximab and immune checkpoint inhibitor after progression on an immune checkpoint inhibitor, outcome by TME phenotype
Protocol: (§2) A single arm phase 2 clinical trial is run to determine whether recurrent/metastatic squamous carcinoma of head and neck (HNSCC) tumor microenvironment phenotypes correlate to clinical responses when patients are treated with Bavituximab and an immune checkpoint inhibitor following progression on an immune checkpoint inhibitor (e.g., nivolumab, pembrolizumab, durvalumab, atezolizumab, etc.). The analysis includes samples from 28 patients. RNA gene signatures are analyzed from tumor samples acquired before any treatments and TME phenotypes are determined. Patients are followed for clinical response, progression-free survival, and overall survival.
(§3) HNSCC patients receive a regimen of Bavituximab plus an immune checkpoint inhibitor (anti-PD-(L)1—i.e., an inhibitor to PD-1 or PD-L1) therapy. […] Twenty-eight (28) patients are enrolled, with equal representation across the 4 stromal phenotypes (7 in each phenotype). The correlation between each TME phenotype is tested against clinical outcome data. In biomarker positive patients, represented by immune active (IA) and immune suppressed (IS) phenotypes, the use of the regimen of Bavituximab/immune checkpoint inhibitor confers benefit in comparison to patients classified as biomarker negative, comprised of angiogenic (A) and immune desert (ID) TME phenotype classes, as shown in the TABLE 32.

[3] = test system: advanced metastatic hepatocellular carcinoma; assay: Single arm phase 2 first-line trial of bavituximab and immune checkpoint inhibitor, outcome by TME phenotype
Protocol: as §2, with “advanced metastatic hepatocellular” for “recurrent/metastatic squamous”, “carcinoma” for “carcinoma of head and neck (HNSCC)”, “in the first-line setting.” for “following progression on an immune checkpoint inhibitor (e.g., nivolumab, pembrolizumab, durvalumab, atezolizumab, etc.).”
as §3, with “Hepatocellular carcinoma” for “HNSCC”, “In patients that are” for “In”, “positive,” for “positive patients,”, “31.” for “32.”

[4] = test system: metastatic gliomas and glioblastoma; assay: Clinical trial of radiation, bavituximab and a checkpoint inhibitor, best objective response versus TME biomarker status
Protocol: A clinical trial is run to treat metastatic gliomas and glioblastoma with a combination of radiation, the anti-phosphatidylserine (anti-PS) targeting antibody bavituximab, and a checkpoint inhibitor (CPI), such as a PD-(L)1, e.g. pembrolizumab or nivolumab. Tumor tissue samples from surgical resections of glioblastoma are RNA sequenced and TME phenotypes are determined. Patients are followed for ORR.

[5] = test system: locally advanced or metastatic gastric cancer; assay: First-line clinical trial of chemotherapy, immune checkpoint inhibitor and navicixizumab, outcome by TME phenotype
Protocol: as §1, with “inhibitor, and Navicixizumab in the” for “inhibitor, and Bavituximab in the”, “immune checkpoint inhibitor or (ii)” for “immune checkpoint inhibitor, or (ii)”, “immune checkpoint inhibitor and Navicixizumab.” for “immune checkpoint inhibitor, and bavituximab.”, “inhibitor and Navicixizumab. RNA gene” for “inhibitor, and bavituximab. RNA gene”
Gastric cancer patients are randomized to receiving a regimen of chemotherapy (e.g., capecitabine, 5-FU, cisplatin etc.) plus an immune checkpoint inhibitor (anti-PD-(L)1—e.g., an inhibitor to PD-1 or PD-L1) therapy, or a regimen of chemotherapy/immune checkpoint inhibitor/Navicixizumab. […] The correlation between each TME phenotype is tested against clinical outcome data. In immune active (IA), immune suppressed (IS) and angiogenic (A) patients the use of the regimen of chemotherapy/immune checkpoint inhibitor/Navicixizumab confers benefit in comparison to patients classified to the immune desert (ID) TME phenotype class as shown in the TABLE 26.

B1: Chemo/Immune Checkpoint Inhibitor/Bavituximab: regimen of chemotherapy, immune checkpoint inhibitor and bavituximab (antibody, chains of the INN, looked up, V domains shown)
VH: EVQLQQSGPELEKPGASVKLSCKASGYSFTGYNMNWVKQSHGKSLEWIGHIDPYYGDTSYNQKFRGKATLTVDKSSSTAYMQLKSLTSEDSAVYYCVKGGYYGHWYFDVWGAGTTVTVSS
VL: DIQMTQSPSSLSASLGERVSLTCRASQDIGSSLNWLQQGPDGTIKRLIYATSSLDSGVPKRFSGSRSGSDYSLTISSLESEDFVDYYCLQYVSSPPTFGAGTKLELK
modifications: with chemotherapy and checkpoint inhibitor
6 Month PFS (%) ([1]; A (n = 15)): 46.7%
ORR (%) ([1]; A (n = 15)): 46.7%
OS (months) ([1]; A (n = 15)): 8.2 months
6 Month PFS (%) ([1]; IA (n = 15)): 80.0%
ORR (%) ([1]; IA (n = 15)): 73.3%
OS (months) ([1]; IA (n = 15)): 20.2 months
6 Month PFS (%) ([1]; ID (n = 15)): 60.0%
ORR (%) ([1]; ID (n = 15)): 53.3%
OS (months) ([1]; ID (n = 15)): 11.8 months
6 Month PFS (%) ([1]; IS (n = 15)): 73.3%
ORR (%) ([1]; IS (n = 15)): 66.7%
OS (months) ([1]; IS (n = 15)): 19.8 months
6 Month PFS (%) ([1]; whole treatment group (n = 60)): 65%
ORR (%) ([1]; whole treatment group (n = 60)): 60%
OS (months) ([1]; whole treatment group (n = 60)): 15 months

B2: Bavituximab plus immune checkpoint inhibitor (antibody, chains of the INN, looked up, V domains shown)
VH: EVQLQQSGPELEKPGASVKLSCKASGYSFTGYNMNWVKQSHGKSLEWIGHIDPYYGDTSYNQKFRGKATLTVDKSSSTAYMQLKSLTSEDSAVYYCVKGGYYGHWYFDVWGAGTTVTVSS
VL: DIQMTQSPSSLSASLGERVSLTCRASQDIGSSLNWLQQGPDGTIKRLIYATSSLDSGVPKRFSGSRSGSDYSLTISSLESEDFVDYYCLQYVSSPPTFGAGTKLELK
modifications: plus immune checkpoint inhibitor
Overall response rate (ORR) ([2]; Biomarker Negative (n = 14)): 14.3%
overall survival (OS) ([2]; Biomarker Negative (n = 14)): 7.8 months
progression free survival (PFS) ([2]; Biomarker Negative (n = 14)): 2.5 months
Overall response rate (ORR) ([2]; Biomarker Positive (n = 14)): 36.4%
overall survival (OS) ([2]; Biomarker Positive (n = 14)): 11.2 months
progression free survival (PFS) ([2]; Biomarker Positive (n = 14)): 5.5 months
Overall response rate (ORR) ([2]; TME phenotype A (n = 7)): 14.3%
overall survival (OS) ([2]; TME phenotype A (n = 7)): 8.6 months
progression free survival (PFS) ([2]; TME phenotype A (n = 7)): 2.6 months
Overall response rate (ORR) ([2]; TME phenotype IA (n = 7)): 28.6%
overall survival (OS) ([2]; TME phenotype IA (n = 7)): 11.0 months
progression free survival (PFS) ([2]; TME phenotype IA (n = 7)): 5.3 months
Overall response rate (ORR) ([2]; TME phenotype ID (n = 7)): 14.3%
overall survival (OS) ([2]; TME phenotype ID (n = 7)): 7.0 months
progression free survival (PFS) ([2]; TME phenotype ID (n = 7)): 2.4 months
Overall response rate (ORR) ([2]; TME phenotype IS (n = 7)): 42.9%
overall survival (OS) ([2]; TME phenotype IS (n = 7)): 11.4 months
progression free survival (PFS) ([2]; TME phenotype IS (n = 7)): 5.7 months
6-month progression free survival (PFS) rate ([3]; Biomarker Negative (n = 14)): 35.7%
Overall response rate (ORR) ([3]; Biomarker Negative (n = 14)): 14%
overall survival (OS) ([3]; Biomarker Negative (n = 14)): 16.2 months
6-month progression free survival (PFS) rate ([3]; Biomarker Positive (n = 14)): 78.6%
Overall response rate (ORR) ([3]; Biomarker Positive (n = 14)): 50%
overall survival (OS) ([3]; Biomarker Positive (n = 14)): 23.8 months
6-month progression free survival (PFS) rate ([3]; TME phenotype A (n = 7)): 42.8%
Overall response rate (ORR) ([3]; TME phenotype A (n = 7)): 14%
overall survival (OS) ([3]; TME phenotype A (n = 7)): 16.7 months
6-month progression free survival (PFS) rate ([3]; TME phenotype IA (n = 7)): 71.4%
Overall response rate (ORR) ([3]; TME phenotype IA (n = 7)): 43%
overall survival (OS) ([3]; TME phenotype IA (n = 7)): 22.4 months
6-month progression free survival (PFS) rate ([3]; TME phenotype ID (n = 7)): 28.6%
Overall response rate (ORR) ([3]; TME phenotype ID (n = 7)): 14%
overall survival (OS) ([3]; TME phenotype ID (n = 7)): 15.7 months
6-month progression free survival (PFS) rate ([3]; TME phenotype IS (n = 7)): 85.7%
Overall response rate (ORR) ([3]; TME phenotype IS (n = 7)): 57%
overall survival (OS) ([3]; TME phenotype IS (n = 7)): 25.2 months

B3: bavituximab, checkpoint inhibitor, and radiation (antibody, chains of the INN, looked up, V domains shown)
VH: EVQLQQSGPELEKPGASVKLSCKASGYSFTGYNMNWVKQSHGKSLEWIGHIDPYYGDTSYNQKFRGKATLTVDKSSSTAYMQLKSLTSEDSAVYYCVKGGYYGHWYFDVWGAGTTVTVSS
VL: DIQMTQSPSSLSASLGERVSLTCRASQDIGSSLNWLQQGPDGTIKRLIYATSSLDSGVPKRFSGSRSGSDYSLTISSLESEDFVDYYCLQYVSSPPTFGAGTKLELK
modifications: with checkpoint inhibitor and radiation
Best Objective Response CR, number of patients ([4]; TME A): 0
Best Objective Response PD, number of patients ([4]; TME A): 4
Best Objective Response PR, number of patients ([4]; TME A): 1
Best Objective Response SD, number of patients ([4]; TME A): 1
Best Objective Response CR, number of patients ([4]; TME IA): 0
Best Objective Response PD, number of patients ([4]; TME IA): 4
Best Objective Response PR, number of patients ([4]; TME IA): 3
Best Objective Response SD, number of patients ([4]; TME IA): 2
Best Objective Response CR, number of patients ([4]; TME ID): 0
Best Objective Response PD, number of patients ([4]; TME ID): 6
Best Objective Response PR, number of patients ([4]; TME ID): 1
Best Objective Response SD, number of patients ([4]; TME ID): 1
Best Objective Response CR, number of patients ([4]; TME IS): 0
Best Objective Response PD, number of patients ([4]; TME IS): 4
Best Objective Response PR, number of patients ([4]; TME IS): 4
Best Objective Response SD, number of patients ([4]; TME IS): 4

B4: Chemo/Immune Checkpoint Inhibitor/Navicixizumab: regimen of chemotherapy, immune checkpoint inhibitor and navicixizumab (antibody, chains of the INN, looked up, V domains shown)
VH: QVQLVQSGAEVKKPGASVKISCKASGYSFTAYYIHWVKQAPGQGLEWIGYISNYNRATNYNQKFKGRVTFTTDTSTSTAYMELRSLRSDDTAVYYCARDYDYDVGMDYWGQGTLVTVSS
VL: DIVMTQSPDSLAVSLGERATISCRASESVDNYGISFMKWFQQKPGQPPKLLIYAASNQGSGVPDRFSGSGSGTDFTLTISSLQAEDVAVYYCQQSKEVPWTFGGGTKVEIK
VH2: QVQLVQSGAEVKKPGASVKVSCKASGYTFTNYWMHWVRQAPGQGLEWMGDINPSNGRTSYKEKFKRRVTLSVDKSSSTAYMELSSLRSEDTAVYFCTIHYDDKYYPLMDYWGQGTLVTVSS
VL2: DIVMTQSPDSLAVSLGERATISCRASESVDNYGISFMKWFQQKPGQPPKLLIYAASNQGSGVPDRFSGSGSGTDFTLTISSLQAEDVAVYYCQQSKEVPWTFGGGTKVEIK
modifications: with chemotherapy and checkpoint inhibitor
6 Month PFS (%) ([5]; A (n = 15)): 66.7%
ORR (%) ([5]; A (n = 15)): 60.0%
OS (months) ([5]; A (n = 15)): 15.4 months
6 Month PFS (%) ([5]; IA (n = 15)): 73.3%
ORR (%) ([5]; IA (n = 15)): 66.7%
OS (months) ([5]; IA (n = 15)): 17.4 months
6 Month PFS (%) ([5]; ID (n = 15)): 53.3%
ORR (%) ([5]; ID (n = 15)): 46.7%
OS (months) ([5]; ID (n = 15)): 11.5 months
6 Month PFS (%) ([5]; IS (n = 15)): 73.3%
ORR (%) ([5]; IS (n = 15)): 73.3%
OS (months) ([5]; IS (n = 15)): 19.7 months
6 Month PFS (%) ([5]; whole treatment group (n = 60)): 67%
ORR (%) ([5]; whole treatment group (n = 60)): 63%
OS (months) ([5]; whole treatment group (n = 60)): 16 months
